Tests used:
[1] = biological target: T1, radiolabeled murine caspase-3 (UniProt P70677)
T1 sequence: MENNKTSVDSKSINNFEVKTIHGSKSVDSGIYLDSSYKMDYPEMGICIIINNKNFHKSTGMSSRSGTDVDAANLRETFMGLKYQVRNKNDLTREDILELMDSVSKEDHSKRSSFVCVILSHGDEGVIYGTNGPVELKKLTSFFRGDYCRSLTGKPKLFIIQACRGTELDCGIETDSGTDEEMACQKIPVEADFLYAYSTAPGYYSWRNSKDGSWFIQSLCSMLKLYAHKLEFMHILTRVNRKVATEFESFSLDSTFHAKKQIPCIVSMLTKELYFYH

[2] = system: T2, 35S-methionine-labeled His6-tagged murine caspase-14
T2 sequence: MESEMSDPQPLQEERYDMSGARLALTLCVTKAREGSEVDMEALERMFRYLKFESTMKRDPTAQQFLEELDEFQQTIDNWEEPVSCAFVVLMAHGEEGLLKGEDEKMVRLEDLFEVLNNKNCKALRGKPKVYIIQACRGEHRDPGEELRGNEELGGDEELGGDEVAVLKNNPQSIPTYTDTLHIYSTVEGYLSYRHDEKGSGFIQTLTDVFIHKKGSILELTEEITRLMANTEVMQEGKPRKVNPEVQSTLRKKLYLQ

[3] = biological target: T3, 35S-methionine-labeled His6-tagged murine caspase-14
T3 chain: T2 sequence

Molecule: murine caspase-8 (prodomain-deleted, lysate of E. coli expressing pLT-DpromCASP-8)
- efficiency of proteolysis by serial 1:5 dilution of caspase-8 lysate, caspase-3 against caspase-14 as substrate [1]: proteolytic activity of caspase-8 was at least 1000 times more efficient on caspase-3 than on murine caspase-14
- in vitro cleavage of 35S-methionine-labeled His6-tagged murine caspase-14, SDS-PAGE and autoradiography [2]: murine caspase-8 cleaved this 35.5 kDa murine caspase-14 weakly into 24 kDa (p18) and 11 kDa (p11) fragments

B1: purified murine caspase-1 (protein)
chain: NKEDGTFPGLTGTLKFCPLEKAQKLWKENPSEIYPIMNTTTRTRLALIICNTEFQHLSPRVGAQVDLREMKLLLEDLGYTVKVKENLTALEMVKEVKEFAACPEHKTSDSTFLVFMSHGIQEGICGTTYSNEVSDILKVDTIFQMMNTLKCPSLKDKPKVIIIQACRGEKQGVVLLKDSVRDSEEDFLTDAIFEDDGIKKAHIEKDFIAFCSSTPDNVSWRHPVRGSLFIESLIKHMKEYAWSCDLEDIFRKVRFSFEQPEFRLQMPTADRVTLTKRFYLFPGH
- in vitro cleavage of radiolabeled caspase-14 [3]: none of the active enzyme preparations were able to cleave caspase-14

B2: purified murine caspase-2 (protein)
chain: GPPCLLVKPCTPEFYQAHYQLAYRLQSQPRGLALVLSNVHFTGEKDLEFRSGGDVDHTTLVTLFKLLGYNVHVLHDQTAQEMQEKLQNFAQLPAHRVTDSCVVALLSHGVEGGIYGVDGKLLQLQEVFRLFDNANCPSLQNKPKMFFIQACRGDETDRGVDQQDGKNHTQSPGCEESDAGKEELMKMRLPTRSDMICGYACLKGNAAMRNTKRGSWYIEALTQVFSERACDMHVADMLVKVNALIKEREGYAPGTEFHRCKEMSEYCSTLCQQLYLFPGYPPT
- in vitro cleavage of radiolabeled caspase-14 [3]: none of the active enzyme preparations were able to cleave caspase-14

B3: purified murine caspase-3 (protein)
chain: SGIYLDSSYKMDYPEMGICIIINNKNFHKSTGMSSRSGTDVDAANLRETFMGLKYQVRNKNDLTREDILELMDSVSKEDHSKRSSFVCVILSHGDEGVIYGTNGPVELKKLTSFFRGDYCRSLTGKPKLFIIQACRGTELDCGIETDSGTDEEMACQKIPVEADFLYAYSTAPGYYSWRNSKDGSWFIQSLCSMLKLYAHKLEFMHILTRVNRKVATEFESFSLDSTFHAKKQIPCIVSMLTKELYFYH
- in vitro cleavage of radiolabeled caspase-14 [3]: none of the active enzyme preparations were able to cleave caspase-14

B4: purified murine caspase-6 (protein)
chain: GFYKSREVFDPAEQYKMDHKRRGVALIFNHERFFWHLTLPERRGTNADRDNLTRRFSDLGFEVKCFNDLRAEELLLKIHEVSTSSHIDADCFICVFLSHGEGNHVYAYDAKIEIQTLTGLFKGDKCQSLVGKPKIFIIQACRGSQHDVPVVPLDMVDHQTDKLDNVTQVDAASVYTLPAGADFLMCYSVAEGYYSHRETVNGSWYIQDLCEMLARYGSSLEFTELLTLVNRKVSQRRVDFCKDPDAIGKKQVPCFASMLTKKLHFCPKPSK
- in vitro cleavage of radiolabeled caspase-14 [3]: none of the active enzyme preparations were able to cleave caspase-14

B5: purified murine caspase-7 (protein)
chain: AKPDRSSIISSILLKKKRNASAGPVRTGRDRVPTYLYRMDFQKMGKCIIINNKNFDKATGMDVRNGTDKDAGALFKCFQNLGFEVTVHNDCSCAKMQDLLRKASEEDHSNSACFACVLLSHGEEDLIYGKDGVTPIKDLTAHFRGDRCKTLLEKPKLFFIQACRGTELDDGIQADSGPINDIDANPRNKIPVEADFLFAYSTVPGYYSWRNPGKGSWFVQALCSILNEHGKDLEIMQILTRVNDRVARHFESQSDDPRFNEKKQIPCMVSMLTKELYFSR
- in vitro cleavage of radiolabeled caspase-14 [3]: none of the active enzyme preparations were able to cleave caspase-14

B6: purified murine caspase-11 (protein)
chain: PGSHHGEANLEMEEPEESLNTLKLCSPEEFTRLCREKTQEIYPIKEANGRTRKALIICNTEFKHLSLRYGANFDIIGMKGLLEDLGYDVVVKEELTAEGMESEMKDFAALSEHQTSDSTFLVLMSHGTLHGICGTMHSEKTPDVLQYDTIYQIFNNCHCPGLRDKPKVIIVQACRGGNSGEMWIRESSKPQLCRGVDLPRNMEADAVKLSHVEKDFIAFYSTTPHHLSYRDKTGGSYFITRLISCFRKHACSCHLFDIFLKVQQSFEKASIHSQMPTIDRATLTRYFYLFPGN
- in vitro cleavage of radiolabeled caspase-14 [3]: none of the active enzyme preparations were able to cleave caspase-14

B7: purified murine granzyme B (protein)
chain: IIGGHEVKPHSRPYMALLSIKDQQPEAICGGFLIREDFVLTAAHCEGSIINVTLGAHNIKEQEKTQQVIPMVKCIPHPDYNPKTFSNDIMLLKLKSKAKRTRAVRPLNLPRRNVNVKPGDVCYVAGWGRMAPMGKYSNTLQEVELTVQKDRECESYFKNRYNKTNQICAGDPKTKRASFRGDSGGPLVCKKVAAGIVSYGYKDGSPPRAFTKVSSFLSWIKKTMKSS
- in vitro cleavage of radiolabeled caspase-14 [3]: none of the active enzyme preparations were able to cleave caspase-14

— patent US20020034812
